In the supplement of paper PMC7877785:
± gives the uncertainty stated by the source.

Assay: self-splicing fitness, log relative to wild type (ln ratio); higher = more splicing; Tetrahymena group I intron in knt gene, E. coli kanamycin selection, DiMSum; sequences stand for … in CUCUCU…GGAGGGAAAAGUUAUCAGGCAUGCACCUGGUAGCUAGUCUUUAAACCAAUAGAUUGCAUCGGUUUAAAAGGCAAGACCGUCAAAUUGCGGGAAAGGGGUCAACAGCCGUUCAGUACCAAGUCUCAGGGGAAACUUUGAGAUGGCCUUGCAAAGGGUAUGGUAAUAAGCUGACGGACAUGGUCCUAACCACGCAGCCAAGUCCUAAGUCAACAGAUCUUCUGUUGAUAUGGAUGCAGUUCACAGACUAAAUGUCGGUCGGGGAAGAUGUAUUCUUCUCAUAAGAUAUAGUCGGACCUCUCCUUAAUGGGAGCUAGCGGAUGAAGUGAUGCAACACUGGAGCCGCUGGGAACUAAUUUGUAUGCGAAAGUAUAUUGAUUAGUUUUGGAGUACUCGUGGUCG
How it was run: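 Six replicate transformations of E. coli BL21(DE3) with a pET-22b(+) library were grown overnight at 37°C or 30°C. The library randomised all eight P1ex-region intron nucleotides, the intron lying in the knt kanamycin-resistance gene, and plates were LB agar with or without 25 μg/mL kanamycin plus 100 μg/mL carbenicillin, 50 μM IPTG and 0.2% rhamnose. Pooled colonies were amplicon-sequenced on an Illumina HiSeq 2500, and fitness is the DiMSum error-weighted combination of wild-type-normalised replicate fold changes, kanamycin versus none.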

Sequence	self-splicing fitness (ln) (30 °C)	self-splicing fitness (ln) (37 °C)
UCUAAGCAAUAUUACGCAAG	-2.85 ± 0.4	-1.86 ± 0.34
AGAUAGCAAUAUUACGCCCA	-1.03 ± 0.21	-0.502 ± 0.23
GCGAAGCAAUAUUACGAACU	-0.877 ± 0.16	-0.787 ± 0.17
CAGUAGCAAUAUUACGCGAC	–	-1 ± 0.32
ACCUAGCAAUAUUACGAUCU	-0.35 ± 0.079	0.0427 ± 0.1
CUGGAGCAAUAUUACGGUUC	-2.68 ± 0.49	–
AAUAAGCAAUAUUACGUAGU	-3.14 ± 0.15	-2.15 ± 0.19
AUAGAGCAAUAUUACGUGCG	-1.6 ± 0.11	-0.384 ± 0.11
GGAAAGCAAUAUUACGUAUG	-2.27 ± 0.1	-2.04 ± 0.15
UUAGAGCAAUAUUACGUGGA	-2.18 ± 0.13	-1.6 ± 0.12
UAAAAGCAAUAUUACGGCGC	-1.64 ± 0.12	-0.483 ± 0.13
UAGGAGCAAUAUUACGCGCG	-0.62 ± 0.11	-1.29 ± 0.14
ACAUAGCAAUAUUACGGGUU	-2.41 ± 0.08	-1.77 ± 0.11
CAGAAGCAAUAUUACGAGUG	-1.63 ± 0.067	-0.988 ± 0.091
GGAGAGCAAUAUUACGUCAA	-2.93 ± 0.31	-3.54 ± 0.46
CUCAAGCAAUAUUACGGGUU	-3.49 ± 0.17	-1.4 ± 0.13
UCACAGCAAUAUUACGGAUU	-4.45 ± 0.13	-2.38 ± 0.096
GAGCAGCAAUAUUACGACCA	-1.17 ± 0.14	-1.02 ± 0.15
GCCCAGCAAUAUUACGACAA	-2.72 ± 0.14	-1.27 ± 0.11
GCCCAGCAAUAUUACGAGUA	-0.468 ± 0.14	-0.671 ± 0.1
ACGUAGCAAUAUUACGGAAG	-3.32 ± 0.3	-1.91 ± 0.28
CGGAAGCAAUAUUACGGAAC	-2.23 ± 0.34	–
GGCUAGCAAUAUUACGCGAU	-1.74 ± 0.19	-0.776 ± 0.2
CAGGAGCAAUAUUACGCGAA	-1.4 ± 0.17	-2.07 ± 0.23
UAUGAGCAAUAUUACGCGCG	-2.51 ± 0.31	-1.01 ± 0.27

Sequence	self-splicing fitness (ln) (30 °C)	self-splicing fitness (ln) (37 °C)
CUACAGCAAUAUUACGUGCA	-3.73 ± 0.35	-2.5 ± 0.18
UUGUAGCAAUAUUACGAACU	-2.24 ± 0.11	0.102 ± 0.1
UUCGAGCAAUAUUACGGCCG	–	-1.41 ± 0.35
AUAAAGCAAUAUUACGAACA	0.281 ± 0.085	0.425 ± 0.11
CCGUAGCAAUAUUACGUUCA	-1.34 ± 0.2	-1.91 ± 0.25
GUGGAGCAAUAUUACGGAGU	-3.56 ± 0.31	-2.25 ± 0.29
GUCCAGCAAUAUUACGAGUC	-1.23 ± 0.097	-0.164 ± 0.098
AUUAAGCAAUAUUACGGAAG	-3.07 ± 0.17	-1.29 ± 0.2
CGCAAGCAAUAUUACGGAUU	-4.84 ± 0.34	-1.5 ± 0.19
ACUGAGCAAUAUUACGUAAU	-3.47 ± 0.23	-2.23 ± 0.22
CAGCAGCAAUAUUACGGGGA	-1.98 ± 0.18	-2.22 ± 0.19
AUCUAGCAAUAUUACGUGGC	-2.58 ± 0.23	-2.92 ± 0.31
CUACAGCAAUAUUACGCCGC	-3.76 ± 0.22	-3.62 ± 0.39
GCGUAGCAAUAUUACGCGUA	-2.83 ± 0.46	-2.3 ± 0.37
CAGCAGCAAUAUUACGGGUG	-1.35 ± 0.082	-0.904 ± 0.085
AUCAAGCAAUAUUACGGUAA	-2.12 ± 0.12	-0.319 ± 0.084
GCAGAGCAAUAUUACGCGAA	-4.38 ± 0.24	-3.44 ± 0.21
GAAGAGCAAUAUUACGGGCG	-3.54 ± 0.37	-2.84 ± 0.35
UUCCAGCAAUAUUACGGUGA	-0.226 ± 0.061	0.234 ± 0.077
UAGUAGCAAUAUUACGUCGA	-1.6 ± 0.17	-1.24 ± 0.16
AGCCAGCAAUAUUACGAAAA	–	-1.63 ± 0.24
CCAAAGCAAUAUUACGGCUG	-0.987 ± 0.069	-0.917 ± 0.088
CCACAGCAAUAUUACGGUUU	-4.31 ± 0.19	-2.8 ± 0.16
CCAUAGCAAUAUUACGCCAG	-1.94 ± 0.14	-0.423 ± 0.14
CUACAGCAAUAUUACGCCGA	-2.29 ± 0.18	-3.15 ± 0.43

Sequence	self-splicing fitness (ln) (30 °C)	self-splicing fitness (ln) (37 °C)
CGGCAGCAAUAUUACGCGGU	-4.26 ± 0.25	-3.33 ± 0.19
ACCUAGCAAUAUUACGACCU	-1.26 ± 0.1	0.455 ± 0.12
CUCCAGCAAUAUUACGUUAC	-3.6 ± 0.18	-2.42 ± 0.2
AUGUAGCAAUAUUACGUUUC	-2.86 ± 0.24	-2.55 ± 0.26
GCCAAGCAAUAUUACGGCCU	-3.86 ± 0.32	-1.67 ± 0.19
GGAGAGCAAUAUUACGAUAA	–	-0.957 ± 0.43
UUUGAGCAAUAUUACGAGCG	–	-1.88 ± 0.35
UAUCAGCAAUAUUACGGAGU	-2.09 ± 0.068	-0.974 ± 0.09
GCUCAGCAAUAUUACGAUAG	-1.95 ± 0.11	-1.26 ± 0.096
CUCAAGCAAUAUUACGUUAC	-4.46 ± 0.31	-3.47 ± 0.29
UGGUAGCAAUAUUACGGAGA	–	-1.24 ± 0.2
UGUGAGCAAUAUUACGGAAU	-3.76 ± 0.32	-2.04 ± 0.23
AACCAGCAAUAUUACGCUUG	-1.94 ± 0.089	-1.07 ± 0.11
GAUGAGCAAUAUUACGCAAG	-2.46 ± 0.38	-1.51 ± 0.36
CGCCAGCAAUAUUACGGAUC	-1.24 ± 0.22	-1.38 ± 0.47
GUUUAGCAAUAUUACGUACA	-0.582 ± 0.2	-0.508 ± 0.22
AAGAAGCAAUAUUACGCCCG	-0.579 ± 0.18	-1.38 ± 0.23
UAGUAGCAAUAUUACGCGAA	–	-2.45 ± 0.41
GCUUAGCAAUAUUACGCGAC	-3.07 ± 0.29	-1.73 ± 0.2
AGCAAGCAAUAUUACGUUGA	-2.95 ± 0.12	-1.37 ± 0.1
AUCAAGCAAUAUUACGCCAG	-3.08 ± 0.2	-1.32 ± 0.23
AAAGAGCAAUAUUACGUACA	-3.37 ± 0.28	-1.71 ± 0.23
GUAUAGCAAUAUUACGGUUA	-1.28 ± 0.11	-0.761 ± 0.098
AGUAAGCAAUAUUACGAUAC	-3.12 ± 0.28	-2.48 ± 0.38
CUGAAGCAAUAUUACGCCAU	-3.41 ± 0.31	-2.52 ± 0.36

Sequence	self-splicing fitness (ln) (30 °C)	self-splicing fitness (ln) (37 °C)
ACGCAGCAAUAUUACGCGGC	-3.37 ± 0.17	-3.06 ± 0.25
GCCUAGCAAUAUUACGGGUU	-2.93 ± 0.12	-2.02 ± 0.13
CAGAAGCAAUAUUACGACGG	-0.126 ± 0.079	0.104 ± 0.1
GCUAAGCAAUAUUACGUGAC	-2.24 ± 0.2	-0.851 ± 0.21
AACUAGCAAUAUUACGAUGA	-0.741 ± 0.079	-0.0286 ± 0.08
CACUAGCAAUAUUACGCGUU	-2.86 ± 0.13	-0.877 ± 0.11
AAUCAGCAAUAUUACGAAGA	-0.26 ± 0.087	0.0829 ± 0.099
AUGAAGCAAUAUUACGGGUU	-1.62 ± 0.11	-1.07 ± 0.12
GAACAGCAAUAUUACGGAUG	-2.79 ± 0.16	-2.29 ± 0.14
UCACAGCAAUAUUACGCUCC	-2.21 ± 0.27	-1.51 ± 0.37
AUUAAGCAAUAUUACGUGAA	-1.55 ± 0.14	-1.5 ± 0.11
GACUAGCAAUAUUACGGUGC	-2.65 ± 0.14	-1.73 ± 0.16
CCAUAGCAAUAUUACGGCCG	-0.548 ± 0.098	-0.739 ± 0.12
GUGAAGCAAUAUUACGAUCG	-0.499 ± 0.097	0.218 ± 0.1
UGUAAGCAAUAUUACGAAAG	-3.6 ± 0.25	-2.75 ± 0.34
CUUAAGCAAUAUUACGUUCU	-2.91 ± 0.19	-2.14 ± 0.21
UUACAGCAAUAUUACGCAAU	-1.23 ± 0.15	-2.23 ± 0.4
CCGCAGCAAUAUUACGUGAA	-4.45 ± 0.21	-1.88 ± 0.16
UUUUAGCAAUAUUACGAGUG	-1.75 ± 0.13	-1.26 ± 0.13
GGCCAGCAAUAUUACGGCUU	-3.45 ± 0.21	-2.68 ± 0.22
UGCGAGCAAUAUUACGCCUU	–	-1.7 ± 0.38
GAAGAGCAAUAUUACGAUGU	-2.54 ± 0.2	-1.39 ± 0.15
CUGCAGCAAUAUUACGGGAA	-4.02 ± 0.29	-2.53 ± 0.17
